{"source": "paper PMC6609622", "about": "“Poly(ADP-ribose) polymerase-1 antagonizes DNA resection at double-strand breaks”", "binders": {"B1": {"name": "JYM696/JYM698 (dsDNA)", "DNA 1": "GGGCGAATTGGGCCCGACGTCGCATGCTCCTCTAGACTCGAGGAATTCGGTACCCCGGGTTCGAAATCGATAAGCTTACAGTCTCCATTTAAAGGACAAG", "DNA 2": "CTTGTCCTTTAAATGGAGACTGTAAGCTTATCGATTTCGAACCCGGGGTACCGAATTCCTCGAGTCTAGAGGAGCATGCGACGTCGGGCCCAATTCGCCC"}}, "molecular_target": "PARP-1 (human, UniProt P09874 1-1014)", "sequence (P09874 whole entry)": "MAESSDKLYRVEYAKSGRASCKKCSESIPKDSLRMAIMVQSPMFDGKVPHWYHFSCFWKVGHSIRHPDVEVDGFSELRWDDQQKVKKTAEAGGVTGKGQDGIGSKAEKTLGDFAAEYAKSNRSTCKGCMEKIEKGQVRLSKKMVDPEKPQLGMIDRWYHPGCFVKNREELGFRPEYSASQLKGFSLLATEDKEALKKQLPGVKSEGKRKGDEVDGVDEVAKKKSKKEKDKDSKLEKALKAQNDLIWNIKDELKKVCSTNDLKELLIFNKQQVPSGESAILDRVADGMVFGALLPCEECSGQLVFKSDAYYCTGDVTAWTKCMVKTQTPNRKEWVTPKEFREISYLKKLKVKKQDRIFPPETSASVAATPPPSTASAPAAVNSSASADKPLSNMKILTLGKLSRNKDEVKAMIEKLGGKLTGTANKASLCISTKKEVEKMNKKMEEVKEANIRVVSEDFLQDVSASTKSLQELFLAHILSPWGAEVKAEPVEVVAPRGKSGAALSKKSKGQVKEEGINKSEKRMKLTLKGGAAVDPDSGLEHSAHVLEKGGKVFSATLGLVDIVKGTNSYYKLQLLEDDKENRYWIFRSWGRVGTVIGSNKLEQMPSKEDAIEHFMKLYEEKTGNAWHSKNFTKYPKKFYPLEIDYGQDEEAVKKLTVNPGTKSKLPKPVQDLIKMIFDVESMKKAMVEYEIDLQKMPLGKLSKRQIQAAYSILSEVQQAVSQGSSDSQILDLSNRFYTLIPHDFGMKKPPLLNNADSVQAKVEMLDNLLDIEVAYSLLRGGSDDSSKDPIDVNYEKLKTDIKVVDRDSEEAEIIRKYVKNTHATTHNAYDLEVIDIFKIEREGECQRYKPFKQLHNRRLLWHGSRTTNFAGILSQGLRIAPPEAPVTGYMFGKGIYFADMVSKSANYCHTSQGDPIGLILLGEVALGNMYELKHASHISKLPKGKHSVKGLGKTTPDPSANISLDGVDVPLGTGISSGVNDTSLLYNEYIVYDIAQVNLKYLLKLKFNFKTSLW", "experiment": "EMSA; 5 and 30 uM NAD+; remains bound; EMSA: 20 mM Na-HEPES pH 7.5, 0.1 mM DTT, 0.05% Triton X-100, 100 ug/mL BSA, 5 mM MgCl2, 2 mM ATP, 100 nM DNA, 37 C 10 min, then 0.2% glutaraldehyde 15 min; DNA", "details": "protein: recombinant; label: 32P; blunt"}
{"binder": "B1", "values": [{"measurement": "binding result", "value": "binds"}]}
